Where “and” joins values, the source holds several entries; their conditions need not be identical. Equal values may be shown once. Read-outs that look alike come from different tables or passages of the source. Marks after values point to notes of the source that are not given here.
Columns and labels:
pH dependence of enzymes = type: biochemical; conditions: for Relative activity (%): highest activity = 100%
Description: The influence of different pH values (from 5.5 to 11) on the activities of the purified enzymes was examined in three buffer systems (sodium acetate, sodium phosphate, and Tris-HCl) at room temperature using pNP-palmitate (see esterase assay in Example 20.1) as a substrate at a final substrate concentration of 0.8 mM.

[1] = type: biochemical, Petromyces albertensis; conditions: for Residual ochratoxin A (%): 5 ppm Ochratoxin A, 37° C., relative to incubation without enzyme
[2] = Enzyme substrate profiles, esterase assays; type: biochemical; conditions: highest activity towards a specific substrate set to 100%
Summary of the method: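 Hydrolysis of pNP-ester substrates, final 0.8 mM (from 8 mM 2-propanol stock), in 50 mM Tris/HCl pH 8.0, followed as pNP release at 410 nm (ε 15 mM^−1 cm^−1). One U = 1 μmol pNP/min; specific activity as U/mg protein.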

[3] = Circular dichroism spectroscopy, melting temperature and refolding; type: physicochemical
Summary of the method: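 Purified protein at 0.15 mg/mL where possible; far-UV CD spectra recorded 190–250 nm against a buffer blank. Unfolding followed at 222 nm from 20 to 90° C. at 2° C. min-1, held 5 min at maximum, then refolding tracked on the reverse ramp; Tm, ΔH, ΔS, ΔG calculated where applicable.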

[4] = Stability in the presence of hydrogen peroxide; type: physicochemical
Summary of the method: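 Purified cutinases held at room temperature with 0, 30, 100, 300, 1500 or 3000 ppm H2O2; residual esterase activity assayed after 1, 2, 3 and 7 days. Activity read as pNP release at 410 nm from pNP-esters (0.8 mM final) in 50 mM Tris/HCl pH 8.0; U = 1 μmol pNP/min, ε 15 mM^−1 cm^−1.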

[5] = Activity of crude culture supernatants from bioreactor; type: biochemical; conditions: pNP-dodecanoate
[6] = Enzymatic activity in the presence of organic solvents; type: biochemical; conditions: buffer only = 100%
Description: Enzyme activity in various organic solvents was studied over a concentration range of 1-30% at room temperature. pNP-palmitate was completely dissolved in 2-propanol (8 mM) and then added to 50 mM Tris/HCl buffer pH 8.0 containing up to 30% organic solvent to give a final substrate concentration of 0.8 mM. The reaction was started by addition of enzyme and the formation of pNP was assayed as described above in Example 20.1.

[7] = Specific activity of purified enzymes (standard esterase assay); type: biochemical
Summary of the method: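 Purified enzymes tested on pNP-esters, including pNP-palmitate, at 0.8 mM final in 50 mM Tris/HCl pH 8.0 (substrate predissolved in 2-propanol). p-Nitrophenol release followed at 410 nm (ε 15 mM^−1 cm^−1); 1 U = 1 μmol pNP/min, specific activity given as U/mg protein.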

B1: Cf-TP: chimeric variant: catalytic and polymer binding domains of CfCUT with T/P-rich linker domain of KrCUT, SEQ ID NO: 29 (protein)
chain: APACPDVELVFARGTGEAAGLGIVGRPLERALAAELPGRTVVATAVDYAASSSQASAGPGSGDMVAKVRSRAAACPGTQFVLGGYSQGATVTDLALGIRTGVTAGTALPEDLAARVAAVVVYGNPLGLTRRTIAQAAPAFATRTVEYCNAGDPVCEPGGGRFTAHITYATNGTVLEGARFAAARVTAAGTPTTPTPTPTPTPVPTTCVTASSLQHVRDGRAYPLWMRTYARGSGDPLGVLSSRTVVSLQADGTDTWRKVAAC
modifications: YebF carrier; Cf-TP variant
In the case of B1, the pH opt. (pH dependence of enzymes) is reported as 9.5, the “Relative activity (%)” value (pH dependence of enzymes; pH 6.5, sodium phosphate buffer) is reported as 12 ± 1% and the “Relative activity (%)” value (pH dependence of enzymes; pH 7.0, sodium phosphate buffer) is reported as 22 ± 1%. For the same molecule, the “Relative activity (%)” value (pH dependence of enzymes; pH 7.5, sodium phosphate buffer) was 36 ± 1%, the “Relative activity (%)” value (pH dependence of enzymes; pH 8.0, Tris/HCl) was 65 ± 7% and the “Relative activity (%)” value (pH dependence of enzymes; pH 8.5, Tris/HCl) was 88 ± 8%. For the same molecule, the “Relative activity (%)” value (pH dependence of enzymes; pH 9.0, Tris/HCl) was 95 ± 3%, the “Relative activity (%)” value (pH dependence of enzymes; pH 9.5, Tris/HCl) was 100* % and the “Relative activity (%)” value (pH dependence of enzymes; pH 10, Tris/HCl) was 35 ± 4%. The “Residual ochratoxin A (%)” value ([1]; 1 h) was 5%, the “Residual ochratoxin A (%)” value ([1]; 4 h) was 0% and the “Residual ochratoxin A (%)” value ([1]; 24 h) was 0%. The “Ochratoxin A degraded” value ([1]; after 4 hours) was 100%, the “Ochratoxin A Degradation per U and h” value ([1]; per 1 U of enzyme (pNP standard test) and hour at 37° C.) was 98 µmol and the “Relative activity, pNP-acetate (C2)” value [2] was 5%. For the same molecule, the “Relative activity, pNP-butyrate (C4)” value [2] was 80 ± 3%, the “Relative activity, pNP-caprylate (C8)” value [2] was 33 ± 1% and the “Relative activity, pNP-decanoate (C10)” value [2] was 66 ± 8%. For the same molecule, the “Relative activity, pNP-myristate (C14)” value [2] was 40 ± 4%, the “Relative activity, pNP-palmitate (C16)” value [2] was 100* % and the refolding ([3]; CD at 222 nm) was “some refolding”. The “melting temperature (Tm)” value ([3]; CD at 222 nm, unfolding) was 56.6 °C, the “Tm (° C.)” value ([3]; estimated using CD-spectroscopy) was 57 ± 1 °C and the “Relative activity (%) after exposure to hydrogen peroxide” value (“Relative activity (%) after exposure” for short) ([4]; H2O2 30 ppm, Day 0) was 97 ± 1%. For the same molecule, the “Relative activity (%) after exposure” value ([4]; H2O2 30 ppm, Day 1) was 89 ± 4%, the “Relative activity (%) after exposure” value ([4]; H2O2 30 ppm, Day 2) was 78 ± 3% and the “Relative activity (%) after exposure” value ([4]; H2O2 30 ppm, Day 3) was 86 ± 2%. The “Relative activity (%) after exposure” value ([4]; H2O2 30 ppm, Day 7) was 65 ± 7%, the “Relative activity (%) after exposure” value ([4]; H2O2 100 ppm, Day 0) was 98 ± 6% and the “Relative activity (%) after exposure” value ([4]; H2O2 100 ppm, Day 1) was 91 ± 3%. For the same molecule, the “Relative activity (%) after exposure” value ([4]; H2O2 100 ppm, Day 2) was 89 ± 7%, the “Relative activity (%) after exposure” value ([4]; H2O2 100 ppm, Day 3) was 94 ± 7% and the “Relative activity (%) after exposure” value ([4]; H2O2 100 ppm, Day 7) was 74 ± 6%. For the same molecule, the “Relative activity (%) after exposure” value ([4]; H2O2 300 ppm, Day 0) was 95 ± 6%, the “Relative activity (%) after exposure” value ([4]; H2O2 300 ppm, Day 1) was 88 ± 3% and the “Relative activity (%) after exposure” value ([4]; H2O2 300 ppm, Day 2) was 85 ± 12%. The “Relative activity (%) after exposure” value ([4]; H2O2 300 ppm, Day 3) was 98 ± 3%, the “Relative activity (%) after exposure” value ([4]; H2O2 300 ppm, Day 7) was 77 ± 5% and the “Relative activity (%) after exposure” value ([4]; H2O2 1,500 ppm, Day 0) was 95 ± 9%. The “Relative activity (%) after exposure” value ([4]; H2O2 1,500 ppm, Day 1) was 89 ± 3%, the “Relative activity (%) after exposure” value ([4]; H2O2 1,500 ppm, Day 2) was 88 ± 6% and the “Relative activity (%) after exposure” value ([4]; H2O2 1,500 ppm, Day 3) was 87 ± 4%. The “Relative activity (%) after exposure” value ([4]; H2O2 1,500 ppm, Day 7) was 68 ± 7%, the “Relative activity (%) after exposure” value ([4]; H2O2 3,000 ppm, Day 0) was 80% and 80 ± 2% and the “Relative activity (%) after exposure” value ([4]; H2O2 3,000 ppm, Day 1) was 74 ± 5%. The “Relative activity (%) after exposure” value ([4]; H2O2 3,000 ppm, Day 2) was 77 ± 2%, the “Relative activity (%) after exposure” value ([4]; H2O2 3,000 ppm, Day 3) was 78 ± 5% and the “Relative activity (%) after exposure” value ([4]; H2O2 3,000 ppm, Day 7) was 57% and 57 ± 5%. For the same molecule, the “activity of crude culture supernatant” value [5] was 0.6 U/mL, the “Relative enzymatic activity (%)” value ([6]; 2-Propanol 5% (v/v)) was 93 ± 1% and the “Relative enzymatic activity (%)” value ([6]; 2-Propanol 10% (v/v)) was 92 ± 2%. The “Relative enzymatic activity (%)” value ([6]; Acetone 1% (v/v)) was 103 ± 12%, the “Relative enzymatic activity (%)” value ([6]; Acetone 5% (v/v)) was 112 ± 10% and the “Relative enzymatic activity (%)” value ([6]; Acetone 10% (v/v)) was 109 ± 6%. The “Relative enzymatic activity (%)” value ([6]; Dimethyl sulfoxide (DMSO) 10% (v/v)) was 150 ± 14%, the “Relative enzymatic activity (%)” value ([6]; Dimethyl sulfoxide (DMSO) 20% (v/v)) was 146 ± 23% and the “Relative enzymatic activity (%)” value ([6]; Dimethyl sulfoxide (DMSO) 30% (v/v)) was 129 ± 18%. For the same molecule, the “Relative enzymatic activity (%)” value ([6]; Dimethylformamide (DMF) 5% (v/v)) was 134 ± 10%, the “Relative enzymatic activity (%)” value ([6]; Methanol 10% (v/v)) was 121 ± 14% and the “Relative enzymatic activity (%)” value ([6]; Methanol 20% (v/v)) was 94 ± 1%. For the same molecule, the “Enzymatic activity of the purified variant” value ([7]; pNP-palmitate) was 30 ± 2 U/mg and the “Spec. Act. (U/mg)” value ([7]; towards pNP-palmitate (standard assay)) was 30 ± 2 U/mg.
